Experimental data published in US20160356794A1 (Merck Sharp & Dohme, published 2016).
No end group written: not given here.

What was measured:
[1] = target: h-Tau 441 (human Tau isoform 2-441, Accession No. NP 005901.2) (human, UniProt P10636 2-758); test: SPR, BIAcore CM3 sensor chip, immobilized h-Tau 441
Protocol: The binding affinity (Kd) of the 10H8 and 19G10 mAbs was determined by BIAcore CM3 sensor chip (Biacore, Piscataway, N.J.) using immobilized h-Tau 441 as the capture protein.

[2] = target: T1, PPTREPKKVAVVRTP (human); test: RepliTope peptide microarray, immobilized 15-mer, fluorescent secondary antibody
T1 construct: Synthetic peptide covalently immobilized on glass through a hydrophilic linker (RepliTope microarray)
T1 peptide: PPTREPKKVAVVRTP
Excerpt: (§1) Epitope mapping of clones 10H8 and 19G10 was completed using JPT Peptide Technologies' RepliTope™ peptide microarrays. This technology consists in using purified synthetic peptides chemoselectively and covalently immobilized to the glass surface. An optimized hydrophilic linker moiety is inserted between the glass surface and the antigen derived peptide sequence to avoid false negatives caused by sterical hindrance. The peptides used spanned Tau mid region protein sequence of 166 amino acids between amino acid 104 and amino acid 269 (Tau 166). Peptides of 15 amino acids in length that extended downstream either 1 or 2 amino acids at a time were used in this experiment.
(§2) The assay was performed using an automated TECAN HS4X00 microarray processing station. Microarrays were washed, incubated with blocking buffer for 60 min at 30° C., and subsequently with clones […] and 19G10 diluted in blocking buffer for 120 min at 30° C. Microarrays were washed and incubated with secondary antibody diluted in blocking buffer for 45 min at 30° C. and then dried. The quantification was performed using high resolution fluorescence scanner. The resulting images were analyzed and quantified using spot-recognition software GenePix (Molecular Devices). For each spot, the mean signal intensity was extracted and expressed as arbitraty florescence units.

[3] = target: T2, TREPKKVAVVRTPPK (human, also: covalently immobilized on glass through a hydrophilic linker); test: as above
T2 construct: Synthetic peptide covalently immobilized on glass through a hydrophilic linker (RepliTope microarray)
T2 peptide: TREPKKVAVVRTPPK
Excerpt: as §1, §2

[4] = target: T3, EPKKVAVVRTPPKSP (human); test: as above
T3 construct: Synthetic peptide covalently immobilized on glass through a hydrophilic linker (RepliTope microarray)
T3 peptide: EPKKVAVVRTPPKSP
Excerpt: as §1, §2

[5] = target: T4, KKVAVVRTPPKSPSS (human); test: as above
T4 construct: Synthetic peptide covalently immobilized on glass through a hydrophilic linker (RepliTope microarray)
T4 peptide: KKVAVVRTPPKSPSS
Excerpt: as §1, §2

[6] = target: T5, SLPTPPTREPKKVAV (human, also: covalently immobilized on glass through a hydrophilic linker); test: as above
T5 construct: Synthetic peptide covalently immobilized on glass through a hydrophilic linker (RepliTope microarray)
T5 peptide: SLPTPPTREPKKVAV
Excerpt: as §1, §2

[7] = target: T6, LPTPPTREPKKVAVV (human); test: as above
T6 construct: Synthetic peptide covalently immobilized on glass through a hydrophilic linker (RepliTope microarray)
T6 peptide: LPTPPTREPKKVAVV
Excerpt: as §1, §2

[8] = target: T7, PTPPTREPKKVAVVR (human); test: as above
T7 construct: Synthetic peptide covalently immobilized on glass through a hydrophilic linker (RepliTope microarray)
T7 peptide: PTPPTREPKKVAVVR
Excerpt: as §1, §2

[9] = target: T8, TPPTREPKKVAVVRT (human, also: covalently immobilized on glass through a hydrophilic linker); test: as above
T8 construct: Synthetic peptide covalently immobilized on glass through a hydrophilic linker (RepliTope microarray)
T8 peptide: TPPTREPKKVAVVRT
Excerpt: as §1, §2

[10] = target: T9, PPTREPKKVAVVRTP (human); test: as above
T9 construct: Synthetic peptide covalently immobilized on glass through a hydrophilic linker (RepliTope microarray)
T9 peptide: PPTREPKKVAVVRTP
Excerpt: as §1, §2

[11] = target: T10, PTREPKKVAVVRTPP (human); test: as above
T10 construct: Synthetic peptide covalently immobilized on glass through a hydrophilic linker (RepliTope microarray)
T10 peptide: PTREPKKVAVVRTPP
Excerpt: as §1, §2

[12] = target: T11, TREPKKVAVVRTPPK (human, also: covalently immobilized on glass through a hydrophilic linker); test: as above
T11 construct: Synthetic peptide covalently immobilized on glass through a hydrophilic linker (RepliTope microarray)
T11 peptide: TREPKKVAVVRTPPK
Excerpt: as §1, §2

[13] = target: T12, REPKKVAVVRTPPKS (human); test: as above
T12 construct: Synthetic peptide covalently immobilized on glass through a hydrophilic linker (RepliTope microarray)
T12 peptide: REPKKVAVVRTPPKS
Excerpt: as §1, §2

[14] = target: T13, EPKKVAVVRTPPKSP (human); test: as above
T13 construct: Synthetic peptide covalently immobilized on glass through a hydrophilic linker (RepliTope microarray)
T13 peptide: EPKKVAVVRTPPKSP
Excerpt: as §1, §2

[15] = target: T14, PGSRSRTPSLPTPPT (human); test: as above
T14 construct: Synthetic peptide covalently immobilized on glass through a hydrophilic linker (RepliTope microarray)
T14 peptide: PGSRSRTPSLPTPPT
Excerpt: as §1, §2

[16] = target: T15, SRSRTPSLPTPPTRE (human, also: covalently immobilized on glass through a hydrophilic linker); test: as above
T15 construct: Synthetic peptide covalently immobilized on glass through a hydrophilic linker (RepliTope microarray)
T15 peptide: SRSRTPSLPTPPTRE
Excerpt: as §1, §2

[17] = target: T16, … (human); test: as above
T16 construct: Synthetic peptide covalently immobilized on glass through a hydrophilic linker (RepliTope microarray)
Excerpt: as §1, §2

[18] = target: T17, … (human); test: as above; remark: listed apart in the source
T17 construct: Synthetic peptide covalently immobilized on glass through a hydrophilic linker (RepliTope microarray)
Excerpt: as §1, §2

[19] = target: T18, SLPTPPTREPKKVAV (human, also: covalently immobilized on glass through a hydrophilic linker); test: as above
T18 construct: Synthetic peptide covalently immobilized on glass through a hydrophilic linker (RepliTope microarray)
T18 peptide: SLPTPPTREPKKVAV
Excerpt: as §1, §2

[20] = target: T19, PTPPTREPKKVAVVR (human); test: as above
T19 construct: Synthetic peptide covalently immobilized on glass through a hydrophilic linker (RepliTope microarray)
T19 peptide: PTPPTREPKKVAVVR
Excerpt: as §1, §2

Sequence of h-Tau 441 (human Tau isoform 2-441, Accession No. NP 005901.2) (P10636 other isoform, or with tags, fused parts or gaps limits assumed): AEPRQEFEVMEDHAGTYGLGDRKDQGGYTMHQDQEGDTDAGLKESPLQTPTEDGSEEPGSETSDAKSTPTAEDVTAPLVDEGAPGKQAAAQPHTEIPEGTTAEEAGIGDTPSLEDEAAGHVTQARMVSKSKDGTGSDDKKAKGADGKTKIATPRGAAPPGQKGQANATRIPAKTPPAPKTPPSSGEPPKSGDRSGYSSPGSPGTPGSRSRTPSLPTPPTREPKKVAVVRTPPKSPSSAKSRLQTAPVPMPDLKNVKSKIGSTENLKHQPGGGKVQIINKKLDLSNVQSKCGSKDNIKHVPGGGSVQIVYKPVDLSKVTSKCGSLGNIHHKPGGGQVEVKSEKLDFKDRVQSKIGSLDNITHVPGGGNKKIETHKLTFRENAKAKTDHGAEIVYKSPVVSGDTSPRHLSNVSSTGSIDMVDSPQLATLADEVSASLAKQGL

Kd [1]: 0.017 µM | koff [1]: 0.000306 s⁻¹ | kon [1]: 18200 M⁻¹ s⁻¹ | Fluorescent Intensity [2]: 61100 arbitrary fluorescence units | Fluorescent Intensity [3]: 32400 arbitrary fluorescence units | Fluorescent Intensity [4]: 2100 arbitrary fluorescence units | Fluorescent Intensity [5]: 750 arbitrary fluorescence units | Fluorescent Intensity [6]: 64400 arbitrary fluorescence units | Fluorescent Intensity [7]: 59500 arbitrary fluorescence units | Fluorescent Intensity [8]: 64200 arbitrary fluorescence units | Fluorescent Intensity [9]: 60600 arbitrary fluorescence units | Fluorescent Intensity [10]: 60200 arbitrary fluorescence units | Fluorescent Intensity [11]: 64300 arbitrary fluorescence units | Fluorescent Intensity [12]: 58800 arbitrary fluorescence units | Fluorescent Intensity [13]: 1400 arbitrary fluorescence units | Fluorescent Intensity [14]: 890 arbitrary fluorescence units | Fluorescent Intensity [15]: 570 arbitrary fluorescence units | Fluorescent Intensity [16]: 552 arbitrary fluorescence units | Fluorescent Intensity [17]: 58000 arbitrary fluorescence units | Fluorescent Intensity [18]: 56700 arbitrary fluorescence units | Fluorescent Intensity [19]: 63900 arbitrary fluorescence units | Fluorescent Intensity [20]: 53000 arbitrary fluorescence units
B1: monoclonal antibody 10H8 (antibody, mouse IgG1, V domains shown)
VH: EVQLQQSGAELVRPGASVKLSCTASGFNIKDEYMNWVKQRPERGLEWIGWIDPENGDAAYASKFQGKATMTADTSSNTAYLQLSSLTSEDTAVYFCTFFYSNYDGYFDVWGAGTTVTVSS
VL: DVLMTQTPLSLPVSLGDQASISCRSSQNIIHSNGSTYLEWYLQKPGQSPKLLIYKVSNRFSGVPDRFSGSGSGTDFTLKISRVEAEDLGIYYCFQGSHVPWTFGGGTKLEIK
notes: also called mAb 10H8; 10H8 mAb
